This note sets out measurements from US11998613B2, “Antibody-drug conjugates containing an anti-mesothelin antibody and uses thereof” (DEVELOPMENT CENTER FOR BIOTECHNOLOGY, priority 2020, dated 2024).

One data set has as its target mesothelin protein (Homo sapiens, UniProt Q13421). The experiment in a line: Binding kinetics of anti-mesothelin ADCs by surface plasma resonance (Biacore T100). The settings on record: analyte MSLN. The procedure:
The kinetic constant of the anti-mesothelin ADCs interaction against mesothelin was determined by surface plasma resonance (Biacore® T100, Biacore, Inc., Piscataway, NJ). The flow cell of the CM5 wafer was fixed with approximately 10,000 reaction units (RU) of anti-human IgG-Fc (Biacore®) in 10 mM glycine pH 5.0 at 10 μL/min for 600 seconds. 10 μg/mL of anti-mesothelin antibody and anti-mesothelin ADCs diluted in TBS at 10 μl/min were captured on CM5 chips. Four concentrations (from 3.7 to 100 nM) of human mesothelin recombinant protein and zero concentration (flow buffer) in 100 μl/min binding were recorded in PBS containing 1 mM CaCl2 for 3 minutes. The dissociation of the complex was measured for 10 minutes. The water surface was regenerated by injecting 3 M MgCl2 and 3 mM EGTA at 10 μl/min for 60 seconds. The curve obtained after subtracting the reference and buffer signals was taken into the 1:1 Langmuir binding model using the Biacore® T100 evaluation software (Biacore®).

Data set [1] has as its system Pancreatic cancer cell line KLM-1 (MSLN+). The experiment in a line: In vitro cytotoxicity, CellTiter-Glo luminescent cell viability assay, KLM-1. The format is cell-based, human. To be noted: KLM-1, 72 hours treatment; read-out: Relative IC50 (nM of toxic payload/ADCs). As for the experimental part:
(§1) Pancreatic cancer cell line KLM-1 was respectively grown in RPMI 1640 Medium (ATCC modification) medium supplemented with 10% fetal bovine serum. Ovarian carcinoma cell line OVCAR-3 was grown in RPMI 1640 Medium (ATCC modification) medium supplemented with 20% fetal bovine serum. The KLM-1 & OVCAR-3 cell lines were maintained in an atmosphere of 5% CO2 in a humidified 37° C. incubator. The day before treatment, cells were collected and seeded into 96-well plates (4,000 cells per well). On the second day, cells were treated with 3-fold serial dilution concentration of toxic payloads and ADCs. Each treatment was performed in eight triplicate data points. After the treatment of 72 hours, cell viability was assessed by CellTiter-Glo® kit (Promega) according to the manufacturer's instruction. At the end of the incubation, luminescence was measured using a SpectraMax i3x Multi Mode Detection Platform (Molecular Devices). Compound cytotoxicity was evaluated in comparison to cells treated with 0.05% PBS (ADCs) or 0.05% DMSO (toxic payload). IC50 values were calculated by fitting viability data with a four-parameter logistic equation using GraphPad prism 5.0 software.

For data set [2], the system named is Ovarian carcinoma cell line OVCAR-3 (MSLN+). The experiment in a line: In vitro cytotoxicity, CellTiter-Glo luminescent cell viability assay, OVCAR-3. The format is cell-based, human. To be noted: OVCAR-3, 72 hours treatment; read-out: Relative IC50 (nM of toxic payload/ADCs). As for the experimental part:
as §1, with “The” for “Pancreatic cancer cell line KLM-1 was respectively grown in RPMI 1640 Medium (ATCC modification) medium supplemented with 10% fetal bovine serum. Ovarian carcinoma cell line OVCAR-3 was grown in RPMI 1640 Medium (ATCC modification) medium supplemented with 20% fetal bovine serum. The”
A general note: In ATP-based viability assays light output follows the ATP content of the culture.

The subject of data set [3] is OVCAR-3 human ovarian cancer xenograft. Nature of the data set: OVCAR-3 xenograft model (Example 46). The format is in vivo, female NOD SCID mice. As for the experimental part: (§2) Five mice were housed in each cage.
OVCAR-3 cells were subcutaneously (SC) implanted (1×10^7 cells in 1:1 PBS/matrigel mixture at 0.2 mL per mouse) into the right flank of female NOD SCID mice. […] Each of the vehicle, DCBPR2002-4(DBCO-vc-MMAE) (15 and 30 mg/kg), and DCBPR2002-4(DBCO-vc-seco-DUBA) (15 mg/kg) was intravenously administered once weekly for 3 weeks.
(§3) Differences are considered significant at *P<0.05.

The test system is the same in data set [4]. The experiment in a line: OVCAR-3 xenograft model (Example 47). The format is in vivo, female NOD SCID mice. To be noted: for tumor growth / anti-tumor activity: TGI≥58% considered significant. As for the experimental part: as §2
OVCAR-3 cells were subcutaneously (SC) implanted (1×10^7 cells in 1:1 PBS/matrigel mixture at 0.2 mL per mouse) into the right flank of female NOD SCID mice. […] Each of the vehicle, DCBPR2002-4(DBCO-vc-MMAE) (5 and 15 mg/kg), and DCBPR2002-TM (15 mg/kg) was intravenously administered once weekly for 3 weeks.
as §3

For data set [5] the test system is unchanged. Nature of the data set: OVCAR-3 xenograft model (Example 48). Type of data set: in vivo, female NOD SCID mice. To be noted: for tumor growth: TGI≥58% considered significant. As for the experimental part:
as §2
OVCAR-3 cells were subcutaneously (SC) implanted (1×10^7 cells in 1:1 PBS/matrigel mixture at 0.2 mL per mouse) into the right flank of female NOD SCID mice. […] Each of the vehicle, and DCBPR2002-4(DBCO-vc-MMAE) (5, 10, and 15 mg/kg) was intravenously administered once weekly for 3 weeks.
as §3

The mark [6] stands for this setting: 15 mg/kg IV once weekly for 3 weeks.
Where [7] appears, read: 5 mg/kg IV once weekly for 3 weeks.
[8] abbreviates: 10 mg/kg IV once weekly for 3 weeks.

Sequence of mesothelin protein (Q13421 with tags, fused parts or gaps): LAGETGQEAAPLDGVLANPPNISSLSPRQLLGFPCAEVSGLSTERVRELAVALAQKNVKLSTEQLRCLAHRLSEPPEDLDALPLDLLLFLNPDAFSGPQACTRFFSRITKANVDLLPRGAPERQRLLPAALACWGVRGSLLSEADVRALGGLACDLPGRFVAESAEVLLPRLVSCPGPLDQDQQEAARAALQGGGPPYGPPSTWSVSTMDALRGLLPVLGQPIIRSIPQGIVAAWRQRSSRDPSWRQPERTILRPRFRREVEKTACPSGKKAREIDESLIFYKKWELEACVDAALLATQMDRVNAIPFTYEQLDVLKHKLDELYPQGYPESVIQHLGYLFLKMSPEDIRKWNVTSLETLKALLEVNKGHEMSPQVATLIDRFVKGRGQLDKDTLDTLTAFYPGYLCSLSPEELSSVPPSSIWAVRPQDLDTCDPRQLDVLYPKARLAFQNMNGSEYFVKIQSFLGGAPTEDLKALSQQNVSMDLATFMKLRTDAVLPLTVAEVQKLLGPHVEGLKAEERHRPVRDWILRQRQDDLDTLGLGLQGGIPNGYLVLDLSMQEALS

B1: DCBPR2002-4(DBCO-vc-MMAE): DCBPR2002-4Az reacted with DBCO-vc-MMAE; trimannosyl-conjugated ADC, DAR 3.89 (conjugate)
VH: QVQLVQSGAEVKKPGASVKVSCKASGYSFTGYTMNWVRQAPGQGLEWMGLITPYNGASSYNQKFRGRVTMTRDTSISTAYMELSRLRSDDTAVYYCARGGYDGRGFDYWGQGTLVTVSS
VL: EIVLTQSPATLSLSPGERATLSCSASSSVSYMHWYQQKPGQAPRLLIYDTSKLASGIPARFSGSGSGTDFTLTISSLEPEDFAVYYCQQWSKHPLTFGQGTKVEIKR
Turning to B1, in the data set with mesothelin protein, the “Rmax(RU)” value is reported as 55.99 RU. The same molecule showed a Ka with mesothelin protein (antibody/ADC captured on CM5 chip via anti-human IgG-Fc) of 5.395E+6. The “dissociation rate constant (koff)” value with mesothelin protein (dissociation rate, antibody/ADC captured on CM5 chip) was 1.17E−4. The IC50 in data set [1] turned out to be 101 nM; in data set [2], 1 nM. For the same molecule, the body weight changes result in data set [3] (setting [6]), in data set [3] (30 mg/kg IV once weekly for 3 weeks), in data set [4] (setting [7]), in data set [4] (setting [6]), in data set [5] (setting [7]) and in data set [5] (setting [8]) was “No body weight loss was observed” in each case. The body weight changes result in data set [5] (setting [6]) was “No body weight loss was observed”. Also, the “tumor growth / anti-tumor activity” value in data set [4] (setting [7]) and in data set [4] (setting [6]) was “significantly reduced OVCAR-3 tumor growth” in each case. Moreover, the tumor growth entry in data set [5] (setting [7]), in data set [5] (setting [8]) and in data set [5] (setting [6]) was “significantly reduced OVCAR-3 tumor growth with a dose-dependent manner” throughout.
